This is an account of results in patent publication US20220010310A1, “An lncRNA integrates a DNA-PK-mediated DNA damage response and vascular senescence” (The Brigham and Women`s Hospital, Inc., priority 2018, published 2022).

The data set has as its target purified DNA-PK protein (Homo sapiens, UniProt P78527). As to the kind of experiment: DNA-PK kinase activity, ATP to ADP conversion (luminescence). The settings on record: 10 pmol transcript, ATP 150 μM. Type of data set: biochemical. An excerpt: FIGS. 9A-I. Identification of DNA-PK as an SNHG12 interactor. (A) Illustration of lncRNA pulldown using nuclear protein extract from HUVECs for in vitro transcribed biotin-labeled SNHG12 or negative control LacZ followed by streptavidin beads pulldown. Protein eluate was sent for MS. (B) Protein hits for SNHG12 (n=2, two technical replicates each). (C) LncRNA pulldown of biotin-labeled SNHG12 compared to negative controls LacZ and antisense transcript for SNHG12 (n=3). (D) RT-qPCR analysis for intravenous delivery of biotinylated SNHG12 to the aorta (n=4 per group). P value was determined by Student's t test. […] P value was determined by Student's t test. (H) Purified DNA-PK protein was incubated with in vitro transcribed LacZ or SNHG12 transcript (10 pmol) together with ATP (150 μM) and luminescence was measured for detecting conversion to ADP. […] P value was determined by Student's t test. (I) DNA-PK protein was incubated for 1 hr with the DNA-PK kinase inhibitor NU7441 (1, 10, 100 μM) to assess DNA-PK kinase activity by luminescence (n=1). […]
To identify the functional consequences of the interaction of SNHG12 with DNA-PK, we assessed the effect of SNHG12 on DNA-PK's kinase activity (DNA-PKcs). Incubation of purified DNA-PK protein with in vitro transcribed SNHG12 assessed the ability of DNA-PKcs to convert ATP to ADP. […]

B1: SNHG12: T7 in vitro transcribed SNHG12 lncRNA transcript used in MST and DNA-PK kinase assays (nucleic acid, listed as Homo sapiens)
chain: TCTAGAGCTAGCGAATTCCTTTCTCCCCGCCGCATTCCCGGTGTCGACTTACTAGCTGCAAGCCTCTGCCTGCCTTCCTGCGCGCCGTTCCCCGCTAGTCGCTGCTGCTGGCGCGCACTCGCCGGGTTTTTCCTCCCACGGCCTCGAGATGGTGGTGAATGTGGCACGGAGGAGCCGGGCCTTCCAACCCGGTGGGCCCGAGCTCCGAAAGGCCCCCTCGGCAGTGAGAGGGGCGGGAGCCCGCGGGGGCCGCGCCCTTCTCTCGCTTCGGACTGCGCAACGCTGCGCTCTGGGCTGACAGGCGGATAAAACGGTCCCATCAAGACTGAGAAAAAGCACACCAGCTATTGGCACAGCGTGGGCAGTGGGGCCTACAGGATGACTGACTTAGTCTACAGAGATCCCGGCGTACTTAAGCAGATGAAGACTCTTAAGATGACAGAAGGTGATTTTTCTGGTGATCGAGGACTTCCGGGGTAATGACAGTGATGAAATGCAGGGGACCTGGTTGCCCCCAAGTTTCCTGGCAGTGTGTGATACTGAGGAGGTGAGCTTGTTTCTGGAGCTGTGCTTTAAGGTAAAGTTGATCAGCTTAATCCTCCTGATCCCTTTCCCATCGGATCTGAACACTGGTCTTGGTGGTCGTAAAAGGAGGAAAAGTAATAGTGAAGCTGGCCTAAATGTTGTAATCTGGTATATGGCATGTGGGCTAGTTTCAGACAGGTTTCAGAGATGGTTGGATCTCTGAAATTGTAAAATGAAGTATAATCTTAGGCTAAGGGAAGGATGCGTGTGAAGCTCTGGAGGTTGGTATAGTAATAGCTGACCTATTACTGCATTTGGGAGGGATCTGTCATAGCTTCCTTGCCTCTTAATTAAGGGTGGTGTTTTTTTCTTTTAGATTCATGTTACATGTAAAGCTGTCCTCATTTGTGACTATGGACCTATGGAGTTGGGACAATCTCTATGGGAAGCAGAAGGCAAGGACCCCGGTCATTTTAGGTAGAAACAACAGCATGCTAATGCAAAAAATTATGCAGTGTGCTACTGAACTTCAGAGGTGATCAATAAAAGAAGAATAAAAAGACTAATAAAAGTAGAATTCTGATCAGGATCC
B1: the “increase of DNA-PKcs kinase activity compared to the LacZ control” value worked out at 2 fold.
